Residue numbers refer to the chain shown, from its start.
B1: M493 (antibody, IgG1, V domains shown)
VH: QVQLVESGGGLVKPGGSLRLSCAASGFTFSSYSMSWIRQAPGKGLEWVSYIDAGGGFTIYPDSVKGRFTISRDNAKNSLYLQMNSLRAEDTAVYYCARHRGNPFDYWGQGTLVTVSS
VL: DIQMTQSPSSLSASVGDRVTITCRASKSVSLDRWSFMHWYQQKPGKAPKLLIYLASNLESGVPSRFSGSGSGTDFTFTISSLQPEDIATYYCQHSRELPWTFGQGTKVEIK
notes: also called H228/L250
B2: M501 (antibody, IgG1, V domains shown)
VH: B1 VH with Y50H, F57R, I59W
VL: B1 VL
notes: also called H231/L250
B3: M695 (antibody, V domains shown)
VH: B1 VH
VL: B1 VL with L31E, D32G, L54V, N57R
notes: also called single-gene DNA ID 695
B4: M696 (antibody, V domains shown)
VH: B1 VH with S33G, A53E, F57Q
VL: B1 VL with L31H, D32V, N57K
notes: also called single-gene DNA ID 696
B5: M694 (antibody, V domains shown)
VH: B1 VH with S33G, A53E, F57Q
VL: B1 VL with L31E, D32G, L54V, N57R
notes: also called single-gene DNA ID 694
B6: M707 (antibody, V domains shown)
VH: EVQLLESGGGLVQPGGSLRLSCAASGFTFSSYTMSWVRQAPGKGLEWVSAIDHGGGQTLYPDSVKGRFTISRDNSKNTLYLQMNSLRAEDTAVYYCARHRGNPFDYWGQGTLVTVSS
VL: B1 VL with L31H, D32V, F77L, I87F
notes: also called single-gene DNA ID 707
B7: M708 (antibody, V domains shown)
VH: B6 VH with A50V, Q57S, L59H
VL: DIQMTQSPSSLSASVGDRVTITCRASKSVSTSGYSFMHWYQQKPGKAPKLLIYVGSRLDYGVPSRFSGSGSGTDFTLTISSLQPEDFATYYCQHSRELPWTFGQGTKVEIK
notes: also called single-gene DNA ID 708
B8: M709 (antibody, V domains shown)
VH: EVQLVQSGAEVKKPGESLKISCKGSGYAFSSSWMNWVRQMPGKGLEWMGRIYAGDADTAYSPSFQGQVTISADKSISTAYLQWSSLKASDTAMYYCARSDYYGDYGFAYWGQGTLVTVSS
VL: DIVMTQSPDSLAVSLGERATINCKASQSVDYAGESFMNWYQQKPGQPPKLLIYAASNLESGVPDRFSGSGSGTDFTLTISSLQAEDVAVYYCQQSNEDPYTFGQGTKLEIK
notes: also called single-gene DNA ID 709
B9: M710 (antibody, V domains shown)
VH: B8 VH with A59N, S61A
VL: B8 VL
notes: also called single-gene DNA ID 710
B10: M711 (antibody, V domains shown)
VH: B8 VH with A53S, A59N, S61N, P62Q, S63K, Q65K
VL: DIQMTQSPSSLSASVGDRVTITCKASQSVDYAGESFMNWYQQKPGKAPKLLIYAASNLESGVPSRFSGSGSGTDFTLTISSLQPEDFATYYCQQSNEDPYTFGQGTKVEIK
notes: also called single-gene DNA ID 711
B11: M713 (antibody, V domains shown)
VH: QVQLVQSGAEVKKPGASVKVSCKASGYAFSSSWMNWVRQAPGQGLEWMGRIYSGDADTNYAQKFKGRVTMTRDTSTSTVYMELSSLRSEDTAVYYCARSDYYGDYGFAYWGQGTLVTVSS
VL: B10 VL
notes: also called single-gene DNA ID 713
B12: M160 (antibody, human IgG4, V domains shown)
VH: B11 VH with A56G, A61N, Q62G
VL: B10 VL with E34D
notes: also called H196,L219
B13: M158 (antibody, human IgG4, V domains shown)
VH: B11 VH with A56G, A61N, Q62G
VL: B10 VL with E34D, F36Y
notes: also called H196,L220
B14: M149 (antibody, human IgG4, V domains shown)
VH: B11 VH with S53P, A56G, A61N, Q62G
VL: B10 VL with E34D
notes: also called H25,L219
B15: M155 (antibody, human IgG4, V domains shown)
VH: B11 VH with S53P, A56G, A61N, Q62G
VL: B10 VL with G33H
notes: also called H25,L217
B16: M157 (antibody, human IgG4, V domains shown)
VH: B11 VH with S53Q, A56G, A61N, Q62G
VL: B10 VL with E34D, F36Y
notes: also called H197,L220
B17: M166 (antibody, human IgG4, V domains shown)
VH: B11 VH with A56G, A61N, Q62G
VL: B10 VL with G33H
notes: also called H196,L217
B18: M596 (antibody, V domains shown)
VH: B8 VH with A56G, A59N
VL: B8 VL with E34D, F36W, A54T, Q83L
notes: IgG; subclass not restated (path 1 mAbs were human IgG1/kappa); also called H239/L257
B19: M600 (antibody, V domains shown)
VH: B8 VH with A56G, A59N
VL: B8 VL with E34D
notes: IgG; subclass not restated; also called H239/L255
B20: M678 (antibody, V domains shown)
VH: B8 VH with A56G
VL: B8 VL with E34D
notes: IgG; subclass not restated; also called H259/L255
B21: M680 (antibody, V domains shown)
VH: B8 VH with A56G, A59N, S61A
VL: B8 VL with E34D
notes: IgG; subclass not restated; also called H260/L255
B22: M703 (antibody, V domains shown)
VH: B8 VH
VL: B8 VL
notes: IgG; subclass not restated; also called H270/L267
B23: M706 (antibody, V domains shown)
VH: B8 VH with A59N, S61A
VL: B8 VL
notes: IgG; subclass not restated; also called H272/L267

Target: T1, Human CD27, full length on the cell surface (human, UniProt P26842 21-260)
T1 sequence (P26842 21-260 H233R): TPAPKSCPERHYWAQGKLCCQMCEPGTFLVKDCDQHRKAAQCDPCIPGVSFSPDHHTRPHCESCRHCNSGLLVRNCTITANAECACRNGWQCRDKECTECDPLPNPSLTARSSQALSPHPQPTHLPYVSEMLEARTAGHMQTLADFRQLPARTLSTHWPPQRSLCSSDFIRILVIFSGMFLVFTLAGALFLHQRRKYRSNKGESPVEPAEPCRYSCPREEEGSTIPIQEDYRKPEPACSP
Experiment: cell-based or functional assay

| Binder | NFkB IC50 [pM] |
| --- | --- |
| B1 | 14 |
| B2 | 4 |

Target: T1, Human CD27, full length on the cell …
Experiment: cell-based or functional assay
Remark: another data set of the same source

| Binder | NF-kB Assay IC50 [pM] |
| --- | --- |
| B3 | 250 |
| B4 | 330 |
| B5 | 420 |
| B6 | 260 |
| B7 | 260 |

Target: T1, Human CD27, full length on the cell …
Experiment: cell-based or functional assay
Remark: another data set of the same source

| Binder | NF-kB Assay IC50 [pM] |
| --- | --- |
| B8 | 272 |
| B9 | 320 |
| B10 | 258 |
| B11 | 296 |

Target: T2, Human CD27 ECD, monomeric soluble (construct limits not stated) (human, UniProt P26842 20-191)
T2 construct: extracellular domain; target of the Biacore assays; also called monomeric soluble CD27; CD27-His
T2 sequence (P26842 20-191): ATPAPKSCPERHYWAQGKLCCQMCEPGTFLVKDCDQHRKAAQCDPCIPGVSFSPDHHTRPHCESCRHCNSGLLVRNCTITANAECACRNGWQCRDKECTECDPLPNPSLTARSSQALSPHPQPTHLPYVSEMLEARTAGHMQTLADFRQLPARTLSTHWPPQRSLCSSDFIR
Experiment: Biacore SPR, purified mAb

| Binder | Kd [pM] | koff [s⁻¹] | kon [M⁻¹ s⁻¹] |
| --- | --- | --- | --- |
| B3 | 202 | 0.00017 | 510000 |
| B4 | 57 | 2.1e-05 | 370000 |
| B5 | 105 | 7.6e-05 | 480000 |
| B6 | 213 | 0.000124 | 585000 |
| B7 | 350 | 0.000225 | 643000 |

Target: T2, Human CD27 ECD, monomeric soluble …
Experiment: Biacore SPR, purified mAb
Remark: another data set of the same source

| Binder | Kd [pM] | koff [s⁻¹] | kon [M⁻¹ s⁻¹] |
| --- | --- | --- | --- |
| B8 | 26 | 5.89e-05 | 2.3e+06 |
| B9 | 19 | 4.88e-05 | 2.55e+06 |
| B10 | 30 | 5.82e-05 | 1.97e+06 |
| B11 | 56 | 1.16e-05 | 206000 |

Target: T3, Human CD27 ECD truncated (ECD 1-121, cleavage site, His6) (human)
T3 construct: also called human CD27 ECD with His Tag; CD27-His
T3 chain: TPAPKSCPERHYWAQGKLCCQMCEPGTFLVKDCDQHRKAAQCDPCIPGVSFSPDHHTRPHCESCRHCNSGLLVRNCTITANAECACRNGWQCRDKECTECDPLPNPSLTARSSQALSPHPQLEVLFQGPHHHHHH
Experiment: ProteOn SPR, culture supernatants

| Binder | fold decrease in KD against the parental mAb M159 [fold] |
| --- | --- |
| B12 | 20 |
| B13 | 6 |
| B14 | 4 |
| B15 | 6 |
| B16 | 6 |
| B17 | 20 |

Target: T3, Human CD27 ECD truncated (ECD 1-121, …)
Experiment: ProteOn SPR, culture supernatants
Remark: another data set of the same source

| Binder | Kd [pM] |
| --- | --- |
| B18 | 25 |
| B19 | 49 |
| B20 | 53 |
| B21 | 30 |
| B22 | 28 |
| B23 | 13 |

Target: T3, Human CD27 ECD truncated (ECD 1-121, …)
Experiment: ProteOn SPR, culture supernatants
Remark: another data set of the same source

| Binder | Kd [pM] |
| --- | --- |
| B12 | 120 |
| B13 | 360 |
| B14 | 540 |
| B15 | 370 |
| B16 | 390 |
| B17 | 100 |

Target: T2, Human CD27 ECD, monomeric soluble …
Experiment: Biacore SPR, purified mAb, CD27-His

| Binder | Kd [pM] | koff [s⁻¹] | kon [M⁻¹ s⁻¹] |
| --- | --- | --- | --- |
| B12 | 117 | 0.00018 | 1.6e+06 |
| B13 | 439 | 0.00066 | 1.5e+06 |
| B17 | 126 | 0.000203 | 1.62e+06 |

Target: T3, Human CD27 ECD truncated (ECD 1-121, …)
Experiment: ProteOn SPR, purified mAb, CD27-His

| Binder | Kd [pM] | koff [s⁻¹] | kon [M⁻¹ s⁻¹] |
| --- | --- | --- | --- |
| B12 | 108 | 0.000223 | 2.07e+06 |
| B17 | 127 | 0.000234 | 1.84e+06 |

Target: T2, Human CD27 ECD, monomeric soluble …
Experiment: Biacore SPR, purified mAb, CD27 ECD

| Binder | Kd [pM] |
| --- | --- |
| B1 | 145 |
| B2 | 74.2 |

Target: T3, Human CD27 ECD truncated (ECD 1-121, …)
Experiment: ELISA signal for binding to CD27, initial small culture supernatants

| Binder | ELISA signal |
| --- | --- |
| B1 | 0.85 |
| B2 | 0.77 |

Reference: US20130243795A1 (Janssen / Centocor, published 2013)
